The target of experiment [1] is T1, PscF from strain PAO1 (Pseudomonas aeruginosa, UniProt P95434 1-85).
T1 chain: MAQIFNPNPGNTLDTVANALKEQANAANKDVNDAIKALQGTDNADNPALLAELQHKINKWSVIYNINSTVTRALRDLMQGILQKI
The experiment is described as follows: ELISA; competition with biotinylated P5G10. On the technique in general: ELISA stands for enzyme-linked immunosorbent assay.

In experiment [2] the target is biotinylated PcrV (Pseudomonas aeruginosa, UniProt G3XD49 1-294, biotin). The experiment is described as follows: BLI. (In general: Biolayer interferometry detects binding as a change in optical thickness at a sensor tip.)

Among the data in article PMC12912723 (2026) are IC50 and Kd values, retold here.

B1: P5G10 (human anti-PscF monoclonal antibody) (antibody, V domains shown)
VH: VQLQQWGAGLLKPSETLSLTCAVYGGSFSDYYWTWIRQAPGKGLEWIGENRHRGTTNYNPSLKGRVTISVDTSKNQFTLKVTSVTAADTAVYFCARQRGSSGGAPSGLDVWGQGTTVTVSS
VL: QSVLTQPPSASGTPGQRVTISCSGASSNIGTNYVFWYQQFPGTAPKLLIYRNGHRPSGVPDRFSGSKSGASASLAISGLRSDDEADYYCATWDDSLSSQVFGGGTKLTVL
Turning to B1, the IC50 in experiment [1] was found to be 0.46 µg/mL.

B2: P5B3 (human monoclonal antibody, IgG1) (antibody, V domains shown)
VH: EVQLVESGGGIVQPGGSLRLSCAASGFTFSSYWMHWVRQAPGKGLVWVSRINSDGSIINYADSVKGRFTISRDNAKKTLHLQMNSLRAEDTAVYYCAKDGVYDALDIWGQGTMVTVSS
VL: SYELTQPPSVSVSPGQTARITCSADALPNQYTYWYQQKPGQAPVLIMYKDSERPSGIPERFSGSSSGTTVTLTISGVQAEDEADYYCQSTDSRGTYVVFGGGTKLTVL
In experiment [2], B2 returned a Kd of 0.0239 nM.

Usually IC50 stands for the midpoint of a concentration-inhibition curve. The term Kd denotes the equilibrium constant for the complex coming apart.
